Measured values taken from patent US5622932A (Eli Lilly and Company, priority 1995, dated 1997).

Columns and labels:
IGF-1 receptor = target: T1, IGF-1 receptor (Homo sapiens, UniProt P08069); experiment: IGF-1 radioreceptor assay (displacement of [125I] ligand from human placental membranes); type: binding; settings: relative to BCAD (IGF-1) = 100; human placental membrane, 24 hours at 4° C., from EC50 values
T1 construct: 30-50 μg of human placental membrane protein was incubated; from tissue; host or cells: human placental membranes
Description: (§1) 67:194-197. Briefly, 30-50 μg of human placental membrane protein was incubated with approximately 10 femtomoles of [^125 I] ligand in a final volume of 500 μl of 100 mM HEPES, pH 7.8, 120 mM NaCl, 5 mM KCl, 1.2 mM MgSO4, 8 mM glucose and 0.25% BSA for 24 hours at 4° C. Membranes were collected on glass fiber filters pre-treated with 0.1% polyethyleneimine by using a cell harvester (Skatron, Lier, Norway). Binding data were analyzed by fitting displacement curves to a four parameter model employing Prefit/Allfit® software for the determination of EC50 values.

insulin receptor = target: T2, insulin receptor (Homo sapiens, UniProt P06213); experiment: Insulin radioreceptor assay (displacement of [125I] ligand from human placental membranes); type: binding; settings: relative to b,a (insulin) = 100; human placental membrane, 24 hours at 4° C., from EC50 values
T2 construct: 30-50 μg of human placental membrane protein was incubated; from tissue; host or cells: human placental membranes
Description: as §1

Row | % IGF-1 POTENCY (IGF-1 receptor) [%] | % INSULIN POTENCY (insulin receptor) [%] | Substance
1 | < 0.1 | – | proinsulin [bca (proinsulin)]
2 | – | 1.2 | IGF-1 [BCAD (IGF-1)]
3 | 0.37 | – | insulin [b,a (insulin)]
